# B1: DNA polymerase iota (Mus musculus), Q6R3M4 (protein)
# chain: MEPLHAGAAGSSRAVCSQGPPTQISSSRVIVHVDLDCFYAQVEMISNPELKDRPLGVQQKYLVVTCNYEARKLGVRKLMNVRDAKEKCPQLVLVNGEDLSRYREMSYKVTELLEEFSPAVERLGFDENFVDLTEMVEKRLQQLPSEEVPSVTVFGHVYNNQSVNLHNIMHRRLVVGSQIAAEMREAMYNQLGLTGCAGVAPNKLLAKLVSGVFKPNQQTVLLPESCQHLIHSLNHIKEIPGIGYKTAKRLEVLGINSVHDLQTFPIKTLEKELGIAIAQRIQQLSFGEDKSPVTPSGPPQSFSEEDTFKKCSSEVEAKAKIEELLSSLLTRVCQDGRKPHTVRLVIRRYSDKHCNRESRQCPIPSHVIQKLGTGNHDSMPPLIDILMKLFRNMVNVKMPFHLTLMSVCFCNLKALSSAKKGPMDCYLTSLSTPAYTDKRAFKVKDTHTEDSHKEKEANWDCLPSRRIESTGTGESPLDATCFPKEKDTSDLPLQALPEGVDQEVFKQLPADIQEEILYGKSRENLKGKGSLSCPLHASRGVLSFFSTKQMQASRLSPRDTALPSKRVSAASPCEPGTSGLSPGSTSHPSCGKDCSYYIDSQLKDEQTSQGPTESQGCQFSSTNPAVSGFHSFPNLQTEQLFSTHRTVDSHKQTATASHQGLESHQGLESRELDSAEEKLPFPPDIDPQVFYELPEEVQKELMAEWERAGAARPSAHR
# What was measured:
# [1] = substrate: C/C=C/C(=O)C1=C(OC)OC(C)(/C=C/C=C/C(C)O)C1=O; assay: Activity of mouse DNA polymerase iota using poly(dA/oligo(dT) substrate at 5 uM by Lineweaver-Burke plot
# [2] = substrate: C/C=C/C(=O)C1=C(OC)OC(C)(/C=C/C=C/C(C)O)C1=O; assay: Activity of mouse DNA polymerase iota using dTTP substrate at 5 uM by Lineweaver-Burke plot
# [3] = substrate: C/C=C/C(=O)C1=C(OC)OC(C)(/C=C/C=C/C(C)O)C1=O; assay: Activity of mouse DNA polymerase iota using poly(dA/oligo(dT) substrate at 10 uM by Lineweaver-Burke plot
# [4] = substrate: C/C=C/C(=O)C1=C(OC)OC(C)(/C=C/C=C/C(C)O)C1=O; assay: Activity of mouse DNA polymerase iota using poly(dA/oligo(dT) substrate at 15 uM by Lineweaver-Burke plot
# [5] = substrate: C/C=C/C(=O)C1=C(OC)OC(C)(/C=C/C=C/C(C)O)C1=O; assay: Activity of mouse DNA polymerase iota using dTTP substrate at 10 uM by Lineweaver-Burke plot
# [6] = substrate: C/C=C/C(=O)C1=C(OC)OC(C)(/C=C/C=C/C(C)O)C1=O; assay: Activity of mouse DNA polymerase iota using dTTP substrate at 15 uM by Lineweaver-Burke plot
protein,measurement,setting,value
B1,Vmax,[1],31.1 pmol/h
same,Vmax,[2],35.7 pmol/h
same,Vmax,[3],20 pmol/h
same,Vmax,[4],14.8 pmol/h
same,Vmax,[5],27.6 pmol/h
same,Vmax,[6],22.5 pmol/h
